Target: Skp(S126C) (UniProt P0AEU7)
Assay: SEC; HiLoad 16/600 Superdex 200 pg; NMR buffer (20 mM MES, pH 6.5, 150 mM NaCl, 1 mM DTT); refolded protein eluted at 79 mL

- stoichiometry N: 3
Substance: Skp(S126C) (from UniProt P0AEU7 21-161) (natural protein)

— article PMC7508745
